Article PMC11565809 (bioRxiv, 2024)

Biological target: human factor H (human, UniProt P08603 19-1231)
Assay: ELISA

Chain of human factor H (P08603 19-1231): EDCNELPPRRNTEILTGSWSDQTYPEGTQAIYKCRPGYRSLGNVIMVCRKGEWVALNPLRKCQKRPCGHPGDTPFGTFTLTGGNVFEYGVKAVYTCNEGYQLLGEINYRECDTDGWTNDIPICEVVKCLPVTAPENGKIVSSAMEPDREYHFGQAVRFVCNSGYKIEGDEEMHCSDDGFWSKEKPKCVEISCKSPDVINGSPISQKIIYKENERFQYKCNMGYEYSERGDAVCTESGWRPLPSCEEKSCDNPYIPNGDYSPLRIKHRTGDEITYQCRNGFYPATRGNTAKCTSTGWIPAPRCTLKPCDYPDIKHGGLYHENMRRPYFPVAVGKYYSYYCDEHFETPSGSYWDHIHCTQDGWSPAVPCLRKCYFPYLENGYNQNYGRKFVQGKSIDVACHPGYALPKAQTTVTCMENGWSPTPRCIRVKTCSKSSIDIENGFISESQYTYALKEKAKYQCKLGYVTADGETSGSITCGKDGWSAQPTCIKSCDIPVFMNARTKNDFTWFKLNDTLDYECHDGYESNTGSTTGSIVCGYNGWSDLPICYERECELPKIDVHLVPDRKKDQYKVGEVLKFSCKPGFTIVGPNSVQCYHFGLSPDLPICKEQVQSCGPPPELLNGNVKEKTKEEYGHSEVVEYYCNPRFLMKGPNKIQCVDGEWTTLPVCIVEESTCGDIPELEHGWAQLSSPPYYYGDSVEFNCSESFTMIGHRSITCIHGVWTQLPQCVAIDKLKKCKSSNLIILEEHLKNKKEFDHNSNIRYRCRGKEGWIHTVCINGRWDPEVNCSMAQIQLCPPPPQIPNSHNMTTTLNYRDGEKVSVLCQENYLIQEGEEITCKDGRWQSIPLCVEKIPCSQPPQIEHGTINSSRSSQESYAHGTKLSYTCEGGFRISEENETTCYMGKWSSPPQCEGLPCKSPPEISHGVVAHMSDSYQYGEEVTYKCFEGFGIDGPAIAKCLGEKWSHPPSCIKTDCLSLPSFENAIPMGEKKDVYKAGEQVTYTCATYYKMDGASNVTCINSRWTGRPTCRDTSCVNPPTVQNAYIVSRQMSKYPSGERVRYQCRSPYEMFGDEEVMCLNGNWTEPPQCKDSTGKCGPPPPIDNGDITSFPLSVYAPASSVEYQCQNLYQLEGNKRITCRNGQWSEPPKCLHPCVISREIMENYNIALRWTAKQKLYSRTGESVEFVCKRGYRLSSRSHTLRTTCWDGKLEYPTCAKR

B1: histidine-tagged CspZ (natural protein, B. burgdorferi)
chain: RLNQRNINELKIFVEKAKYYSIKLDAIYNECTGAYNDIMTYSEGTFSDQSKVNQAISIFKKDNKIVNKFKELEKIIEEYKPMFLSKLIDDFAIELDQAVDNDVSNARHVADSYKKLRKSVVLAYIESFDVISSKFVDSKFVEASKKFVNKAKEFVEENDLIALECIVKTIGDMVNDREINSRSRYNNFYKKEADFLGAAVELEGAYKAIKQTLL
Question: Does B1 bind?
Answer: binds
